Target: T1, mouse C-KIT (SB, Lot #LC05DE2304) (mouse, UniProt P05532 25-523)
T1 chain: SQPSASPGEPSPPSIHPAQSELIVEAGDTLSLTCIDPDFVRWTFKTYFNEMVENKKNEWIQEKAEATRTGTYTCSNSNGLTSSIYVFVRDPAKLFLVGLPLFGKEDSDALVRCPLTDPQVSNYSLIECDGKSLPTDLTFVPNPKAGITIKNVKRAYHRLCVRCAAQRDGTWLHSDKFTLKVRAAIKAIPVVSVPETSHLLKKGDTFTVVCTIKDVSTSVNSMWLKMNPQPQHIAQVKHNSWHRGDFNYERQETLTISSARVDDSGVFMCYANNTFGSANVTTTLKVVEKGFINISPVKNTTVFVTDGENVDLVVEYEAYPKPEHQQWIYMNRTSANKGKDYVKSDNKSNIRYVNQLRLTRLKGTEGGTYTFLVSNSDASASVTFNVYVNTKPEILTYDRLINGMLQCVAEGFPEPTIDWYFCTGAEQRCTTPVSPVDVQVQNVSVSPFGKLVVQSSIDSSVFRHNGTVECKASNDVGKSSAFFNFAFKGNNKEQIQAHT
Test: SPR

B1: 2G4 antibody (antibody, V domains shown)
VH: QVQLVESGGGVVQPGRSLRLSCAASGFTFSRYGMHWVRQAPGKGLEWVAVIWYDGTNKDYTDSVRGRFTISRDNSKNTLYLQMNSLRAEDTAVYYCAREDWAEAFDMWGQGTTVTVSS
VL: not shown
- Kd: 11.5 nM
